Reference: PMC12912276 (Nature cell biology, 2025)

Target: T1, His-SUMO-C-GB1 (SETD2 region C) (UniProt Q9BYW2 817-1322)
T1 sequence (looked up): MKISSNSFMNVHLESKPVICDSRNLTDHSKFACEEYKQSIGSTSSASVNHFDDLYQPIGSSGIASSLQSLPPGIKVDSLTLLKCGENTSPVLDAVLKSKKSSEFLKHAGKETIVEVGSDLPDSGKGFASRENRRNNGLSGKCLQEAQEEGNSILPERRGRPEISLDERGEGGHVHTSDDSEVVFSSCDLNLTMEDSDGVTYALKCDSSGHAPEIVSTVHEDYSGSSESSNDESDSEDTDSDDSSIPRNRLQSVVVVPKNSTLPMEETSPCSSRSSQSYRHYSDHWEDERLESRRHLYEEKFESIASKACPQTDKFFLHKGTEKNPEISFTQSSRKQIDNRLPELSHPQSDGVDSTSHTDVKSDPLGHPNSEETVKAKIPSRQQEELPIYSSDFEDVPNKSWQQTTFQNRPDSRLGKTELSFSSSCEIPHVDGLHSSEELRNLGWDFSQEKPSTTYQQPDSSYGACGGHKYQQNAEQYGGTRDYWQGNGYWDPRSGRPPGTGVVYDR
Assay: pull-down

B1: GST-lamin A-CT (387-664 a.a.) (domain or fragment, human, UniProt P02545 387-664, looked up)
chain: LRLSPSPTSQRSRGRASSHSSQTQGGGSVTKKRKLESTESRSSFSQHARTSGRVAVEEVDEEGKFVRLRNKSNEDQSMGNWQIKRQNGDDPLLTYRFPPKFTLKAGQVVTIWAAGAGATHSPPTDLVWKAQNTWGCGNSLRTALINSTGEEVAMRKLVRSVTVVEDDEDEDGDDLLHHHHGSHCSSSGDPAEYNLRSRTVLCGTCGQPADKASASGSGAQVGGPISSGSSASSVTVTRSYRSVGGSGGGSFGDNLVTRSYLLGNSSPRTQSPQNCSIM
  binding result: binds
